{"source": "paper PMC3338619", "about": "“Ligand Binding Study of Human PEBP1/RKIP: Interaction with Nucleotides and Raf-1 Peptides Evidenced by NMR and Mass Spectrometry” (PLoS ONE, 2012)", "origin": "cited, not measured here", "molecular_target": "Raf-1 tri-phosphorylated peptide (Homo sapiens) (UniProt P04049)", "data": [{"substance": "rPEBP1 (from UniProt P31044)", "values": [{"measurement": "Kd", "value": 20, "unit": "µM"}]}]}
